Test results as given in patent US20110262471A1 (ONCOTHERAPY SCIENCE, published 2011).

T1: human beta 2m-HLA-A2.1 (alpha 1, alpha 2)-H-2 Db (alpha 3 transmembrane cytoplasmic; HHD) monochain (human; mouse, UniProt P61769 21-119; P01899 207-362)
T1 chain (looked up): not shown


Biological target: T1, human beta 2m-HLA-A2.1 (alpha 1, alpha …)
Test: cell-based or functional assay

IFN-gamma ELISPOT of CD4- spleen cells of immunized HLA-A2.1 (HHD) Tgm, in response to BM-DCs pulsed with the peptide [spot counts/well] | Binder
149 | LLSDDDVVV [RAB6KIFL-A2-9-12 peptide]
117 | CIAEQYHTV [RAB6KIFL-A2-9-809 peptide]
141 | AQPDTAPLPV [RAB6KIFL-A2-10-284 peptide]
